Experimental data published in patent US20070009927A1 (published 2007).

Target: T1, Sizn1 bait (full-length Sizn1 coding sequence in pGBKT7) (mouse, UniProt Q9CZA5 1-402)
T1 construct: Yeast two-hybrid bait in AH109 cells; also called Sizn bait construct; Sizn1 as a bait; not shown: fusion partner supplied by vector pGBKT7 (Clontech)
Assay: yeast two-hybrid screen of an E11 mouse library

T1 sequence (Q9CZA5 whole entry, the tested form may be a part): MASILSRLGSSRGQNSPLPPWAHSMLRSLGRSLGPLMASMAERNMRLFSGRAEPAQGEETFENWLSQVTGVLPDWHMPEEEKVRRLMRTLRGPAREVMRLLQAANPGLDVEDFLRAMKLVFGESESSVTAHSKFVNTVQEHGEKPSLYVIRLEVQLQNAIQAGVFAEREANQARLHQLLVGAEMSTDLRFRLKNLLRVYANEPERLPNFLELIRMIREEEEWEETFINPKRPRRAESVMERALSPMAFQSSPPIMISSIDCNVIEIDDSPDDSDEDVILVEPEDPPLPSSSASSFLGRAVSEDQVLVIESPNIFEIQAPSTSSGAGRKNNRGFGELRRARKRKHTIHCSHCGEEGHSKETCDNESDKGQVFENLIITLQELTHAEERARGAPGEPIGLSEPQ

binding result: binds
B1: amino acids 382-495 of Smad6 corresponding to the MH2 domain of Smad6 (other, mouse, UniProt O35182 382-495, looked up)
chain: RRTRSKIGFGILLSKEPDGVWAYNRGEHPIFVNSPTLDAPGGRALVVRKVPPGYSIKVFDFERSGLLQHADAAHGPYDPHSVRISFAKGWGPCYSRQFITSCPCWLEILLNNHR
notes: Positive prey clone of the yeast two-hybrid screen; also called Smad6 MH2 domain; not shown: library fusion partner of the Matchmaker3 two-hybrid prey vector; not described
